These results are taken from paper PMC7994445, “The actomyosin interface contains an evolutionary conserved core and an ancillary interface involved in specificity” (Nature Communications, 2021).

Series [1] concerns the target T1, PfMyoA motor domain (amino acids 1-K768) with a T417D mutation (Plasmodium falciparum, UniProt Q8IDR3 1-768, T417D).
T1 construct: Plasmodium falciparum myosin A (PfMyoA) heavy chain, motor domain, amino acids 1-K768, with the phosphomimetic mutation T417D (TEDS site, HCM loop); Residue K768 is followed by a Gly-Ser linker and the C-terminal FLAG tag; Nucleotide-free (Rigor) in the structure; also called PfMD; PfMyoA motor-domain construct with a T417D mutation
T1 sequence: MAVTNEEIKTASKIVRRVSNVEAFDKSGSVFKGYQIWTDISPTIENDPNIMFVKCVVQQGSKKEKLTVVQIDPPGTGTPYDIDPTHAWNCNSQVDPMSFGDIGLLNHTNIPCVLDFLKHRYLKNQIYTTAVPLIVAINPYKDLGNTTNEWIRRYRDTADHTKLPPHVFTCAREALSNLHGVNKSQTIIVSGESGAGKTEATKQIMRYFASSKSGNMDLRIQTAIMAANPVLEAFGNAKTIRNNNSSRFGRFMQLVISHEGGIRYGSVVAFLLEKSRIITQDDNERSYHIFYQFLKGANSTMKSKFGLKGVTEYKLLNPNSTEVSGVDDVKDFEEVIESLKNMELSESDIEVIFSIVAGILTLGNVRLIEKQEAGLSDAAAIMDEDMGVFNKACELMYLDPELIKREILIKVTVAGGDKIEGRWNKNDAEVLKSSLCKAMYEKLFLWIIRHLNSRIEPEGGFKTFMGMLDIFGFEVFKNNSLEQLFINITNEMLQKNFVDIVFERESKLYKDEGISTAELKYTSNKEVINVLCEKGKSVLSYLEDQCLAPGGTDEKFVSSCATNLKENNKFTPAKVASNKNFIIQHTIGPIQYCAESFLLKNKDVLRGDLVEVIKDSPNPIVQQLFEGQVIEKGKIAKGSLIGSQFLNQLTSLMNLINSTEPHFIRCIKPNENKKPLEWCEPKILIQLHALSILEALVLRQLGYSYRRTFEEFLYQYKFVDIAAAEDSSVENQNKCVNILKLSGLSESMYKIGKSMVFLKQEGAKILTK
Put plainly: cryo-EM structure; PfMyoA motor domain T417D incubated in solution with JAS-stabilized PfAct1 filaments, vitrified within 15 min; nucleotide-free (Rigor) state; helical reconstruction at 3.8 Å. The settings on record: both partners purified.

Series [2] concerns the molecule itself. Described as above.

B1: PfActin-1 filaments (natural protein)
chain: not shown
notes: Plasmodium falciparum actin-1; ends at the final native Phe after chymotrypsin cleavage; Filamentous; unstabilised filaments were used in one motility condition; also called PfAct1; P. falciparum actin 1; not shown: His6, C-terminal, cleaved
For B1, the binding result in series [1] and in series [2] was “binds” throughout.
